For experiment [1], the target named is T1, human Complement Factor D (CFD), purified from human serum (human, UniProt P00746 26-253).
T1 construct: serum purified (CompTech A136); also called serum purified CFD; hCFD-Comptech
Description: SPR MX96, mAbs amine-coupled, CFD injected.

Experiment [2] deals with T2, recombinant human CFD, His-tagged (human, UniProt P00746 26-253).
T2 construct: also called rhCFD-His
Description: SPR MX96.

In experiment [3] the target is T3, human complement factor D purified from serum (human, UniProt P00746 26-253).
T3 construct: serum-purified (CompTech); also called hCFD-Comptech; CFD
Description: SPR MX96.

In experiment [4] the target is T4, recombinant cynomolgus CFD, His-tagged (cynomolgus).
T4 construct: also called rcyCFD-His; recombinant Cyno-CFD
Description: SPR MX96.

Experiment [5] concerns the target T5, recombinant human CFD mutant 1 (R157A, R207A), His-tagged (human, UniProt P00746 26-253).
T5 construct: positions are linear positions in the mature protein; also called rhCFD-mut1-His; Mut1
Description: SPR MX96.

T1 sequence (P00746 26-253): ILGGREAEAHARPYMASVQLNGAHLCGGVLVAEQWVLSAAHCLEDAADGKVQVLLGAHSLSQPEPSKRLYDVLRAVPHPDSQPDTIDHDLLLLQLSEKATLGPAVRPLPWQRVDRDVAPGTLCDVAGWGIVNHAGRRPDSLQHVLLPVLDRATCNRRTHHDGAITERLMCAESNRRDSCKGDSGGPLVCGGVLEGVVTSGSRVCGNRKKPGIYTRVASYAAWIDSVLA
T2 sequence (P00746 26-253 limits assumed): as the sequence (P00746 26-253) above
T3 sequence (P00746 26-253): as above
T5 sequence (P00746 26-253 R182A/R232A limits assumed): as the sequence (P00746 26-253) above, with R157A, R207A counted along it

B1: KCD047 (antibody, V domains shown)
VH: EVQLQQSGAEFVKPGASVRLSCTASGFNIKDTYMHWVKQRPEQGLEWIGRIDPANGYTKDDPKFQGKATITADTSSNTAYLQLSSLTSEDTAVYYCASAMDYWGQGTSVTVSS
VL: QIVLTQSPAVMSASPGEKVAMTCSASSSVTYMYWYQQKPGSSPRLLIYDTSNLASGVPVRFSGSGSGTSYSLTISRMEAEDAATYYCQQWSTYPFPFGSGTKLEIK
The molecule B1 registered a dissociation constant Kd in experiment [1] of 4.37 nM.

B2: KCD136 (antibody, V domains shown)
VH: EVQLQQSVAELVRPGASVKLSCSASGFNIKNTYMHWVNQRPEQGLEWIGRIDPANGITKYAPNFQGKATITADTSSNTAYLQLSNLTSEDTAIYYCTRAMDYWGQGTSVTVSS
VL: QIVLTQSPAIMSASPGEKVTMTCSASSSVSYMYWYQQKPGSSPRLLIYDISNLASGVPVRFSGSGSGTSYSLTISRMEAEDAATYYCQQWDTYPWTFGGGTKLEIK
In experiment [1], B2 yielded a dissociation constant (Kd) of 4.46 nM.

B3: KCD014 (antibody, V domains shown)
VH: EVKLVESGGGLVQPGGSLKLSCAASGFTFSSYIMSWVRQTPEKRLEWVAYITNGGGNTYYPDTIKGRFTISRDNAKNTLYLQMSSLKSEDTAMYYCARHGTGYAMDYWGQGTSVTVSS
VL: EIVLTQSPTTMAASPGEKITITCSASSSISSNYLHWYQQKPGFSPKLLIYRTSNLASGVPARFSGSGSGTSYSLTIGTMEAEDVATYYCQQGSSIPLTFGAGTKLELK
For the molecule B3, the equilibrium dissociation constant (Kd) in experiment [2] is 20 nM; in experiment [3], 22 nM.

B4: KCD063 (antibody, V domains shown)
VH: EVKLVESGGGLVQPGGSLKLSCAASGFIFSSYIMSWVRQTPEKRLEWVAYITNGGGSTYYPDTVKGRLTISRDNAKNTLYLQMSSLKSEDTAMYYCVRHAHYYAMDYWGQGTSVTVSS
VL: DIQMTQSPSSLSASLGGKVTITCKASQDINKYITWYQHKPGKGPRLLIHYTSTLQPGIPSRFSGSGSGRDYSFSISNLEPEDIATYYCLQYDNLLYTFGGGTKLEIK
In the case of B4, the results for the Kd in experiment [3] and in experiment [4] were 33 nM and 24 nM, respectively.

B5: KCD212 (antibody, V domains shown)
VH: EVHLVESGGDLVKPGGSLKLSCAASGFTFSRYGMSWVRQTPDKRLEWVATISSAGSYTYYPDSVKGRFTISRDNAKNTLFLQMSSLKSEDTAMYYCARPLNYYGTSSFDYWGQGTTLTVSS
VL: QIVLTQSPAIMSASPGEKVTMTCRASSSVSSTYLHWYQQKPGSSPKLWIYSTSNLASGVPPRFSGSGSGTSYSLTISSVEAEDAATYYCQQYDSSPNTFGAGTKLELK
Turning to B5, the Kd in experiment [1] worked out at 0.469 nM.

B6: KCD210 (antibody, V domains shown)
VH: EVQLQQSGPVLVKPGASVTMSCKASGYTFTEYYMNWVKQSHGKSLDWIGVINPYSGGTSYKQKFKDKATLTVDKSSSTAYMELNGLTSEDSAVYFCVRGGLRRNYFDYWGQGTTLTVSS
VL: EIVLTQSPALMTASPGEKVTITCSVSSSISSTNLHWYQQKSGTSPKPWIFGTSNLASGVPVRFSGSGSGTSYSLTISNMEAEDAATYYCQQWNSYPFTFGTGTKLEIK
Consider B6, for which the Kd in experiment [1] came out at 3.52 nM.

B7: KCD135 (antibody, V domains shown)
VH: EVQLQQSGPELVKPGASVRMSCKASGYIFTDYSIHWVKQSHGKSLEWIGYINPNNGGTSYNQKFKGKATLTVNKSSTTAYMELRSLTSEDSAVYFCARDTTIVGDYWGQGTTLTVSS
VL: DIVMTQSQKFMSTSVGDRVSVTCKASQHVGTNVVWYQQKPGQSPKALIYSASYRYSGVPDRFSGSGSGTDFTLTISNVQSEDLAEYFCQQFNSYPLTFGGGTKLEIK
B7: the Kd in experiment [1] turned out to be 21.2 nM.

B8: KCD066 (antibody, V domains shown)
VH: QVQLQQSAAELARPGASVKMSCKASGYTFTDYTMHWVKQRPGQGLEWIGYINPSGGYTDYNQKFKDKTALTADKSSSTAYMQLSSLTSEDSAVYYCARRRDYWFAYWGQGTLVTVSA
VL: DIVMSQSPSSLAVSVGEKVTMSCKSSQSLLYSGNQKNYLAWYQQKPGQSPKLLIYWASTRESGVPDRFTGSGSGTDFTLTISSVKAEDLAVYYCHQYYSYLTFGAGTKLELK
In experiment [1], B8 gave a Kd of 2.88 nM.

B9: KCD030 (antibody, V domains shown)
VH: QVQLQQSGAELAKPGASVKMSCKASGYTFTNYWMHWVKQRPGQGLEWIGYINPSIGYTEYNQKFKDKATLTADKSSSTAYMQLSSLTSEDSAVFYCATFIYYAMDYWGQGTSVTVSS
VL: DIQMNQSPSSLSASLGDTITITCHASQNINVWLSWYQQKPGNIPKLLIYKASNLHTGVPSRFSGSGSGTGFTLTISSLQPEDIATYYCQQGQSYPYTFGGGTKLEIK
As for B9, the Kd stood at 3.8 nM in experiment [2], 4.2 nM in experiment [3] and 1.3 nM in experiment [5].

B10: KCD131 (antibody, V domains shown)
VH: QVQLQQSGPELVKPGASVKISCKASAYTFTDYYINWVKQRPGQGPEWIGWIFPGSNSTYSNEKFEVKATLTVDESSSTAYMLLSSLTSEDSAVYFCARLGYFGSSYHALDYWGQGTSVTVSS
VL: DIQMTQSPASLSVSVGETVTITCRASENIYSHLAWFQQKQGKSPRLLVYSATNLPDGVPSRFSGSGSGTQYSLKINILQSEDFGSYYCQHFWGTPWTFGGGTKLEIK
Molecule B10 registered a Kd in experiment [1] of 0.14 nM.

B11: KCD219 (antibody, V domains shown)
VH: QVQLQQSGPELVKPGASVKISCKASGYTFTDYYINWVKQRPGQGLEWIGWIFPGSGSTYYNEKFKGKATLTVDKSSSTAYMLLSSLPSEDSAVYFCARYGYYGSSFYAMDYWGQGTSVTVSS
VL: DIQMTQSPASLSVSVGETVTITCRASENIYSNLAWYQQKQGKSPQLLVYAATNLADGVPSRFSGSGSGTQYSLKINSLQSEDFGSYYCQHFWGSPPTFGGGTKLEIK
B11 showed a Kd in experiment [1] of 4.3 nM.

B12: KCD224 (antibody, V domains shown)
VH: QVQLKESGPGLVAPSQSLSITCTVSGFSLTSYGVDWIRQSPGKGLEWLGVIWGVGSTNYNSALKSRLSISKDNSKSQVFLKMNSLQTDDTAMYYCARSYDGSYWYFDVWGTGTTVTVSS
VL: DIQMTQTTSSLSASLGDRVTISCRASQVISNYLNWYQQKPDGTVKLLIYYTSRLHSGVPSRFSGSGSGTDYSLTISNLEPEDIATYYCQQYSKLPYTFGSGTKLEIK
B12 showed a Kd in experiment [1] of 1.17 nM.

B13: KCD075 (antibody, V domains shown)
VH: QVQLLQPGAELVRPGTSVKLSCKASGYTFSNYWINWVKQRPGQGLEWIGNIYPSDSSINYNQKFKDKATLTVDKSSTTAYMQLSSPTSEDSAVYYCTGTDWYFDVWGAGTTVTVSS
VL: DIQMTQTTSSLSASLGDRVTISCSGGQGISNYLNWYQQKPDGTFKLLIYYTSTLHSGVPSRFSGSGSGTDYSLTISNLEPEDVATYYCQQYSKLPYTFGGGTKLEIK
Consider B13, for which the dissociation constant (Kd) in experiment [1] was determined as 3.75 nM.

B14: KCD225 (antibody, V domains shown)
VH: QVQLQQSGPELVKPGASVKISCKASGYTFTDYYINWMKQRPGQGLEWIGWIFPGSDSTYYNEKFKGKATLTVDKSSSTAYMLLSSLTSEDSAVYFCARLGYYSHSYYAMDYWGQGTSVTVSS
VL: DIQMTQSPASLSVSTGETVTITCRASENIYSNLAWFQQKQGKSPQLLVYAATNLADGVPSRFSGSGSGTQYSLKITSLQSEDFGSYYCQHFWGTPLTFGAGTKLDLK
Consider B14, for which the Kd in experiment [1] was found to be 8.67 nM.

B15: KCD139 (antibody, V domains shown)
VH: EVQLQQSGAELVRPGSSVKMSCKTSGYTFTSYGINWVKQRPGQGLEWIGYIYIANGYTENNEKFKGKAKLTSDISSSTAYMQLSSLTSEDSAIYFCARRFDYAGALDYWGQGTSVTVSS
VL: DIVLTQSPASLAVSLGQRATISCRASESVDSYGNSFMHWYQQKPGQPPKLLIHRASNLESGIPARFSGSGSRTDFTLTINPVEADDVAIYYCQQTNDDPYTFGGGTNLEIK
With B15, the affinity in experiment [1], expressed as Kd, was 5.28 nM.

B16: KCD133 (antibody, V domains shown)
VH: EVQLVESGGGLLQPKGSLKLSCAASGFTFNTYAMNWVRQAPGKGLEWVARIRSKSSNYATYYADSVKDRFTISRDDSQSMFYLEMNNLKTEDTAMYYCVRDRGYYYVMDYWGQGTSVTVSS
VL: DIVLTQSPASLAVSLGQRATISCRASESVEYYGTSLMQWYQQKPGQPPKLLINAASNVESGVPARFSGSGSGTDFSLNIHPVEEDDIAMYFCQQSRKVPWTFGGGTKLEIK
For B16, the Kd in experiment [2] turned out to be 14 nM; in experiment [3] it was 12 nM; in experiment [4] it was 84 nM.

B17: KCD126 (antibody, V domains shown)
VH: EVQLQQSGAELVRPGSSVKMSCKTSGKTFTSHGINWVKQRPGQGLEWIGYIYIGNGYNEYNEKFKGKATLTSDTSSSTAYMQLSSLTFEDSAIYFCVRKAYGNYGFDDWGQGTTLTVSS
VL: DIQMTQSPTSLSASLGESVSLTCRASQEISGNLNWLQQKPDGSIKRLIYAASTLDSGVPKRFSGSRSGSDYSLTISSLESEDFADYYCLQYANYPFTFGSGTKLEVK
For the molecule B17, the dissociation constant (Kd) in experiment [1] was found to be 0.34 nM.

B18: KCD205 (antibody, V domains shown)
VH: EVQLQQSGAELVRPGSSVKMSCKTSGNTFTSHGINWVKQRPGQGLEWIGYIYIGNGYNEYNEKFKGKATLTSDTSSSTAYMQLSSLTSEDSAIYFCVRKAYGNYGFDDWGQGTTLTVSS
VL: DIQMTQSPSSLSASLGERVSLTCRASQEISGYLSWLQQKPDGTIKRLIYAASTLDSGVPKRFSGSSSGSDYSLTISSLESDDFADYYCLQYASYPFTFGSGTKLEIK
For the molecule B18, in experiment [1], the dissociation constant Kd was 2.98 nM.

B19: KCD110 (antibody, V domains shown)
VH: EVQLQQSGPELVKPGASVKISCKASGYSFTGYYMHWVKQSHGNILDWIGYIDPDNGVSSKNQKFTGKATVTADKSSSTAYMELRSLTSEDSAVYYCAGYYGSSWYWYFDVWGTGTTVTVSS
VL: QIVLSQSPAILSASPGEKVTMTCRASSSVSYMHWYQQKPGSSPKPWIYATSNLASGVPARFSGSGSGTSYSLTISRVEAEDAATYYCQQWSSNPYTFGGGTKLEIK
B19 came in with an equilibrium dissociation constant (Kd) in experiment [1] of 3.71 nM.

B20: KCD077 (antibody, V domains shown)
VH: EVQLQQSGAELVRPGALVKLSCKASGFNIKDYYMHWVKQRPEQGLEWIGWIDPENGHTIYDPRFQGKATITADTSSNTAYLQLSSLTSEDTAVYYCSRGLLGFAYWGQGTLVTVSA
VL: DIVMTQSQKFMSTSVGDRVSVTCKASQNVGTNVAWYQQKPGQSPKALIYTASYRYSGVPDRFTGSGSGTDFTLTISNVQSEDLAEYFCQQYNSYPHMYTFGGGTKLEIK
B20: the Kd in experiment [3] is 17 nM; in experiment [4] it was 14 nM; in experiment [5], 13 nM.

As a reminder, the Kd is a measure of binding affinity in units of concentration.

Source of the values: patent US20180334496A1 (KODIAK SCIENCES, published 2018).
